Data taken from the supplement of paper PMC7125110.
± gives the standard error. Fewer inactive variants are shown than the library holds.

B1: glmS ribozyme (parent)
chain: AUAAAAGCGCCAGAACUACAGAAAUGUAGUUGACGAGGAGGAGGUUUAUCGAAUUUUCGGCGGAUGCCUCCAAA

Columns and labels:
Settings in all cases: with glucosamine-6-phosphate
[1] = variants of: B1; experiment: self-cleavage kobs at 40 uM GlcN6P; higher = faster cleavage; RNA array
Outline: (§1)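 Barcoded ribozyme variants on sequenced MiSeq chips were transcribed in situ by E. coli RNA polymerase and followed at 37 °C through a hybridised Cy3 probe. Glucosamine-6-phosphate at 40 μM to 10 mM in HEPES/KCl/Mg(OAc)2 buffer was flowed in, and tiles were imaged over ~14 h. Signals were normalised to baseline and to non-cleaving reference variants, and per-tile medians were fit to one- or two-exponential decays to give kobs. Weighted Michaelis–Menten fits across concentrations gave kcat and KM.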

[2] = variants of: B1; experiment: self-cleavage kobs at 640 uM GlcN6P; higher = faster cleavage; RNA array
Outline: as §1

[3] = variants of: B1; experiment: self-cleavage kobs at 2500 uM GlcN6P; higher = faster cleavage; RNA array
Outline: as §1

[4] = variants of: B1; experiment: self-cleavage kobs at 10000 uM GlcN6P; higher = faster cleavage; RNA array
Outline: as §1

[5] = variants of: B1; experiment: self-cleavage kobs at 160 uM GlcN6P; higher = faster cleavage; RNA array
Outline: as §1

Variant | self-cleavage kobs at 40 uM GlcN6P [1] [s⁻¹] | self-cleavage kobs at 640 uM GlcN6P [2] [s⁻¹] | self-cleavage kobs at 2500 uM GlcN6P [3] [s⁻¹] | self-cleavage kobs at 10000 uM GlcN6P [4] [s⁻¹] | self-cleavage kobs at 160 uM GlcN6P [5] [s⁻¹]
U47A U49C | < 1e-05 | < 1e-05 | < 1e-05 | – | –
G7A G40A A53G G60C C68U | < 1e-05 | < 1e-05 | < 1e-05 | – | –
G37U G43C G66U | < 1e-05 | – | – | < 1e-05 | –
G13C G44C | < 1e-05 | < 1e-05 | < 1e-05 | < 1e-05 | < 1e-05
G41A U57G | < 1e-05 | – | – | < 1e-05 | –
A36G G63U | < 1e-05 | < 1e-05 | < 1e-05 | < 1e-05 | < 1e-05
A14G G40A | 0.000801 ± 0.00011 | 0.0045 ± 0.00098 | 0.00484 ± 0.0011 | 0.0666 ± 0.029 | 0.00119 ± 0.00039
U30C G43A | < 1e-05 | – | < 1e-05 | < 1e-05 | < 1e-05
G38U G44A | < 1e-05 | < 1e-05 | < 1e-05 | < 1e-05 | < 1e-05
C8A A15G U54A | < 1e-05 | – | – | < 1e-05 | –
G37C G59A | < 1e-05 | – | – | < 1e-05 | < 1e-05
G37A C61A | < 1e-05 | < 1e-05 | – | < 1e-05 | –
G13A C50G G66U U69A | 8.64e-05 ± 2.3e-05 | 0.000563 ± 0.00026 | – | 0.000117 ± 3e-05 | –
A33G C61U | < 1e-05 | – | – | < 1e-05 | –
A14U A36G C50U C61A | < 1e-05 | – | – | – | –
C8G A12C A15G U30G G38A U46C | < 1e-05 | – | – | < 1e-05 | –
C8G G63C | < 1e-05 | < 1e-05 | < 1e-05 | – | < 1e-05
C8G C11A C50G | 0.000193 ± 4.9e-05 | – | – | – | –
G35C G44A | < 1e-05 | – | – | < 1e-05 | –
A6C C34A C58A | < 1e-05 | – | – | < 1e-05 | –
C50G G51A G59A | < 1e-05 | – | – | – | –
C16U C50G G62A C67G | 6.99e-05 ± 1.9e-05 | 0.000337 ± 7.8e-05 | – | 9.28e-05 ± 1.6e-05 | –
A33U U46A U47G | < 1e-05 | – | – | – | –
A33G A48G C71U | < 1e-05 | – | < 1e-05 | < 1e-05 | < 1e-05

Variant | self-cleavage kobs at 40 uM GlcN6P [1] [s⁻¹] | self-cleavage kobs at 640 uM GlcN6P [2] [s⁻¹] | self-cleavage kobs at 2500 uM GlcN6P [3] [s⁻¹] | self-cleavage kobs at 10000 uM GlcN6P [4] [s⁻¹] | self-cleavage kobs at 160 uM GlcN6P [5] [s⁻¹]
C10G A36C G43C | < 1e-05 | < 1e-05 | – | < 1e-05 | –
A42C C61U C71A | < 1e-05 | – | – | – | –
G13A A36U A48G C50G C61G | 0.000674 ± 0.00026 | – | – | – | –
G35A G66U | < 1e-05 | – | – | – | < 1e-05
A15C C16G | 5.89e-05 ± 1.4e-05 | 0.000438 ± 5.6e-05 | – | 0.00295 ± 0.00045 | –
G21U U46A | 6.35e-05 ± 2.2e-05 | – | 0.00271 ± 0.0012 | 0.00269 ± 0.00086 | –
G37A A53G G60U C61U G63A | < 1e-05 | – | – | – | –
U2A A3U G32A | 7.12e-05 ± 1.6e-05 | – | 0.0028 ± 0.00085 | – | –
G41C U49G A53G | < 1e-05 | – | – | – | –
C10A G62U | < 1e-05 | – | – | < 1e-05 | < 1e-05
A14C G60C | < 1e-05 | – | < 1e-05 | < 1e-05 | < 1e-05
A42C G63A C67G | < 1e-05 | – | – | – | –
C10G C50G G63A C71U | 6.86e-05 ± 1.9e-05 | – | – | 5.34e-05 ± 1.7e-05 | –
A6G U57G | < 1e-05 | < 1e-05 | < 1e-05 | < 1e-05 | < 1e-05
G41A U69C | < 1e-05 | – | – | – | < 1e-05
C11U G62C | < 1e-05 | < 1e-05 | < 1e-05 | – | < 1e-05
A6G A53C C58A C61A | < 1e-05 | – | – | < 1e-05 | –
G35U C58U | < 1e-05 | – | < 1e-05 | < 1e-05 | < 1e-05
A12U U54A U69A | 0.000126 ± 4.4e-05 | 0.000125 ± 2.7e-05 | 0.000458 ± 9.4e-05 | 0.000322 ± 6.8e-05 | 0.000159 ± 4.6e-05
A64G U65C C68A | < 1e-05 | – | < 1e-05 | < 1e-05 | –
G7C G43U | < 1e-05 | < 1e-05 | – | < 1e-05 | < 1e-05
C8G U31A U56A C70A | < 1e-05 | – | – | < 1e-05 | –
A14C U55G | 9.05e-05 ± 2.8e-05 | – | – | 0.00435 ± 0.0012 | –
